Values quoted from earlier work in publication PMC7419686.
pKd: −log10 of the molar value.

Target: MDMX (Homo sapiens) (UniProt O15151)
Sequence (O15151 whole entry): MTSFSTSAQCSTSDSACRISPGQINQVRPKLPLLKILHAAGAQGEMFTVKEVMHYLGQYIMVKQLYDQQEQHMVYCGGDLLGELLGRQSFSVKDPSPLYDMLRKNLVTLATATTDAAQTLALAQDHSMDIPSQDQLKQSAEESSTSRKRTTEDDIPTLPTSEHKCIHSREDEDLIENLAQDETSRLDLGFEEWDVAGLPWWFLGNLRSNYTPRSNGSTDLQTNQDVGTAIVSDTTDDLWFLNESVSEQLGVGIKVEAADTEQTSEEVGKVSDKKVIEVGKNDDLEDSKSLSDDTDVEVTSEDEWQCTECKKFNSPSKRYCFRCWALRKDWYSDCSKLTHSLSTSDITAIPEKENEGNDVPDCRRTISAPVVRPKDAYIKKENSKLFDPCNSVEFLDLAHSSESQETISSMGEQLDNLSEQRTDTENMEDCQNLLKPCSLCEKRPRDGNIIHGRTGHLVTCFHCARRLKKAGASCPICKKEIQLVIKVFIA

In the case of SAH-p53-8 (from UniProt P04637), the pKd is listed as 8.64.
